Source: patent US20150344570A1 (published 2015)

T1: FcγRIIa R (human, UniProt P12318 34-217)
T1 construct: extracellular domain; also called FcgRIIa R type; 2aR
T1 sequence (looked up): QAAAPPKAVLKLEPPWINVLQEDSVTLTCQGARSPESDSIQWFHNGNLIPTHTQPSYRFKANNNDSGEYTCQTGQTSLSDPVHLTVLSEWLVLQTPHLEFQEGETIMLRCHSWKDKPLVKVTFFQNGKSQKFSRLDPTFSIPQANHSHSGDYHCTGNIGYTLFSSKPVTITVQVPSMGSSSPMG

B1: GpH7-A5/GpH7-B3 variant K334_13S/GpL16-k0 (antibody, human IgG1, kappa)
heavy 1: not shown
heavy 2: not shown
light: DIVMTQSPLSLPVTPGEPASISCQASESLVHSNRNTYLHWYLQKPGQSPQLLIYKVSNRFSGVPDRFSGSGSGTDFTLKISRVEAEDVGVYYCSQNTHVPPTFGQGTKVEIERTVAAPSVFIFPPSDEQLKSGTASVVCLLNNFYPREAKVQWKVDNALQSGNSQESVTEQDSKDSTYSLSSTLTLSKADYEKHKVYACEVTHQGLSSPVTKSFNRGEC
notes: also called He Ab K334_13S
B2: GpH7-A5/GpH7-B3 variant P271_10E/GpL16-k0 (antibody, human IgG1, kappa)
heavy 1: not shown
heavy 2: not shown
light: B1 light
notes: also called He Ab P271_10E
B3: GpH7-A5/GpH7-B3 variant N325_14T/GpL16-k0 (antibody, human IgG1, kappa)
heavy 1: not shown
heavy 2: not shown
light: B1 light
notes: also called He Ab N325_14T
B4: GpH7-A5/GpH7-B3 variant P238_03V/GpL16-k0 (antibody, human IgG1, kappa)
heavy 1: not shown
heavy 2: not shown
light: B1 light
notes: also called He Ab P238_03V
B5: GpH7-A5/GpH7-B3 variant N325_10E/GpL16-k0 (antibody, human IgG1, kappa)
heavy 1: not shown
heavy 2: not shown
light: B1 light
notes: also called He Ab N325_10E
B6: GpH7-A5/GpH7-B3 variant K326_15Y/GpL16-k0 (antibody, human IgG1, kappa)
heavy 1: not shown
heavy 2: not shown
light: B1 light
notes: also called He Ab K326_15Y
B7: GpH7-A5/GpH7-B3 variant K326_12R/GpL16-k0 (antibody, human IgG1, kappa)
heavy 1: not shown
heavy 2: not shown
light: B1 light
notes: also called He Ab K326_12R
B8: GpH7-A5/GpH7-B3 variant L234_04F/GpL16-k0 (antibody, human IgG1, kappa)
heavy 1: not shown
heavy 2: not shown
light: B1 light
notes: also called He Ab L234_04F
B9: GpH7-A5/GpH7-B3 variant I336_18N/GpL16-k0 (antibody, human IgG1, kappa)
heavy 1: not shown
heavy 2: not shown
light: B1 light
notes: also called He Ab I336_18N
B10: GpH7-A5/GpH7-B3 variant L328_10E/GpL16-k0 (antibody, human IgG1, kappa)
heavy 1: not shown
heavy 2: not shown
light: B1 light
notes: also called He Ab L328_10E
B11: GpH7-A5/GpH7-B3 variant I336_08L/GpL16-k0 (antibody, human IgG1, kappa)
heavy 1: not shown
heavy 2: not shown
light: B1 light
notes: also called He Ab I336_08L
B12: GpH7-A5/GpH7-B3 variant N325_20W/GpL16-k0 (antibody, human IgG1, kappa)
heavy 1: not shown
heavy 2: not shown
light: B1 light
notes: also called He Ab N325_20W
B13: GpH7-A5/GpH7-B3 variant K334_10E/GpL16-k0 (antibody, human IgG1, kappa)
heavy 1: not shown
heavy 2: not shown
light: B1 light
notes: also called He Ab K334_10E
B14: GpH7-A5/GpH7-B3 variant K326_08L/GpL16-k0 (antibody, human IgG1, kappa)
heavy 1: not shown
heavy 2: not shown
light: B1 light
notes: also called He Ab K326_08L
B15: GpH7-A5/GpH7-B3 variant K334_19Q/GpL16-k0 (antibody, human IgG1, kappa)
heavy 1: not shown
heavy 2: not shown
light: B1 light
notes: also called He Ab K334_19Q
B16: GpH7-A5/GpH7-B3 variant N325_04F/GpL16-k0 (antibody, human IgG1, kappa)
heavy 1: not shown
heavy 2: not shown
light: B1 light
notes: also called He Ab N325_04F
B17: GpH7-A5/GpH7-B3 variant L328_13S/GpL16-k0 (antibody, human IgG1, kappa)
heavy 1: not shown
heavy 2: not shown
light: B1 light
notes: also called He Ab L328_13S
B18: GpH7-A5/GpH7-B3 variant N325_06M/GpL16-k0 (antibody, human IgG1, kappa)
heavy 1: not shown
heavy 2: not shown
light: B1 light
notes: also called He Ab N325_06M
B19: GpH7-A5/GpH7-B3 variant K334_05P/GpL16-k0 (antibody, human IgG1, kappa)
heavy 1: not shown
heavy 2: not shown
light: B1 light
notes: also called He Ab K334_05P
B20: GpH7-A5/GpH7-B3 variant K326_03V/GpL16-k0 (antibody, human IgG1, kappa)
heavy 1: not shown
heavy 2: not shown
light: B1 light
notes: also called He Ab K326_03V
B21: GpH7-A5/GpH7-B3 variant P238_15Y/GpL16-k0 (antibody, human IgG1, kappa)
heavy 1: not shown
heavy 2: not shown
light: B1 light
notes: also called He Ab P238_15Y
B22: GpH7-A5/GpH7-B3 variant L235_15Y/GpL16-k0 (antibody, human IgG1, kappa)
heavy 1: not shown
heavy 2: not shown
light: B1 light
notes: also called He Ab L235_15Y
B23: GpH7-A5/GpH7-B3 variant N325_13S/GpL16-k0 (antibody, human IgG1, kappa)
heavy 1: not shown
heavy 2: not shown
light: B1 light
notes: also called He Ab N325_13S
B24: GpH7-A5/GpH7-B3 variant N325_09D/GpL16-k0 (antibody, human IgG1, kappa)
heavy 1: not shown
heavy 2: not shown
light: B1 light
notes: also called He Ab N325_09D
B25: GpH7-A5/GpH7-B3 variant K326_04F/GpL16-k0 (antibody, human IgG1, kappa)
heavy 1: not shown
heavy 2: not shown
light: B1 light
notes: also called He Ab K326_04F
B26: GpH7-A5/GpH7-B3 variant P271_08L/GpL16-k0 (antibody, human IgG1, kappa)
heavy 1: not shown
heavy 2: not shown
light: B1 light
notes: also called He Ab P271_08L
B27: GpH7-A5/GpH7-B3 variant K326_18N/GpL16-k0 (antibody, human IgG1, kappa)
heavy 1: not shown
heavy 2: not shown
light: B1 light
notes: also called He Ab K326_18N
B28: GpH7-A5/GpH7-B3 variant K334_20W/GpL16-k0 (antibody, human IgG1, kappa)
heavy 1: not shown
heavy 2: not shown
light: B1 light
notes: also called He Ab K334_20W
B29: GpH7-A5/GpH7-B3 variant P271_09D/GpL16-k0 (antibody, human IgG1, kappa)
heavy 1: not shown
heavy 2: not shown
light: B1 light
notes: also called He Ab P271_09D
B30: GpH7-A5/GpH7-B3 variant K326_07I/GpL16-k0 (antibody, human IgG1, kappa)
heavy 1: not shown
heavy 2: not shown
light: B1 light
notes: also called He Ab K326_07I

Target: T1, FcγRIIa R
Assay: SPR (Biacore), captured antibody, FcγR as analyte; relative binding activity

| He/Con_2aR | Binder |
| --- | --- |
| 109 % (GpH7-A5/GpH7-B3/GpL16-k0 = 100) | B1 |
| 103 % (GpH7-A5/GpH7-B3/GpL16-k0 = 100) | B2 |
| 105 % (GpH7-A5/GpH7-B3/GpL16-k0 = 100) | B3 |
| 120 % (GpH7-A5/GpH7-B3/GpL16-k0 = 100) | B4 |
| 105 % (GpH7-A5/GpH7-B3/GpL16-k0 = 100) | B5 |
| 136 % (GpH7-A5/GpH7-B3/GpL16-k0 = 100) | B6 |
| 103 % (GpH7-A5/GpH7-B3/GpL16-k0 = 100) | B7 |
| 104 % (GpH7-A5/GpH7-B3/GpL16-k0 = 100) | B8 |
| 104 % (GpH7-A5/GpH7-B3/GpL16-k0 = 100) | B9 |
| 105 % (GpH7-A5/GpH7-B3/GpL16-k0 = 100) | B10 |
| 110 % (GpH7-A5/GpH7-B3/GpL16-k0 = 100) | B11 |
| 134 % (GpH7-A5/GpH7-B3/GpL16-k0 = 100) | B12 |
| 106 % (GpH7-A5/GpH7-B3/GpL16-k0 = 100) | B13 |
| 137 % (GpH7-A5/GpH7-B3/GpL16-k0 = 100) | B14 |
| 109 % (GpH7-A5/GpH7-B3/GpL16-k0 = 100) | B15 |
| 120 % (GpH7-A5/GpH7-B3/GpL16-k0 = 100) | B16 |
| 117 % (GpH7-A5/GpH7-B3/GpL16-k0 = 100) | B17 |
| 152 % (GpH7-A5/GpH7-B3/GpL16-k0 = 100) | B18 |
| 103 % (GpH7-A5/GpH7-B3/GpL16-k0 = 100) | B19 |
| 141 % (GpH7-A5/GpH7-B3/GpL16-k0 = 100) | B20 |
| 156 % (GpH7-A5/GpH7-B3/GpL16-k0 = 100) | B21 |
| 129 % (GpH7-A5/GpH7-B3/GpL16-k0 = 100) | B22 |
| 143 % (GpH7-A5/GpH7-B3/GpL16-k0 = 100) | B23 |
| 116 % (GpH7-A5/GpH7-B3/GpL16-k0 = 100) | B24 |
| 135 % (GpH7-A5/GpH7-B3/GpL16-k0 = 100) | B25 |
| 104 % (GpH7-A5/GpH7-B3/GpL16-k0 = 100) | B26 |
| 115 % (GpH7-A5/GpH7-B3/GpL16-k0 = 100) | B27 |
| 105 % (GpH7-A5/GpH7-B3/GpL16-k0 = 100) | B28 |
| 110 % (GpH7-A5/GpH7-B3/GpL16-k0 = 100) | B29 |
| 147 % (GpH7-A5/GpH7-B3/GpL16-k0 = 100) | B30 |
